Results published in patent US20180207294A1, “NON-ALCOHOLIC FATTY LIVER REGULATING FACTOR 14-3-3 PROTEIN” (Korea University Research and Business Foundation, priority 2015, published 2018).

Columns and labels:
[1] = target: T1, PPARγ2 (Homo sapiens, UniProt P37231); assay: aP2 promoter luciferase assay of PPARγ2 transcriptional activity in HEK-293T cells; type: cell-based
T1 construct: host or cells: HEK-293T
T1 sequence (P37231 1-505): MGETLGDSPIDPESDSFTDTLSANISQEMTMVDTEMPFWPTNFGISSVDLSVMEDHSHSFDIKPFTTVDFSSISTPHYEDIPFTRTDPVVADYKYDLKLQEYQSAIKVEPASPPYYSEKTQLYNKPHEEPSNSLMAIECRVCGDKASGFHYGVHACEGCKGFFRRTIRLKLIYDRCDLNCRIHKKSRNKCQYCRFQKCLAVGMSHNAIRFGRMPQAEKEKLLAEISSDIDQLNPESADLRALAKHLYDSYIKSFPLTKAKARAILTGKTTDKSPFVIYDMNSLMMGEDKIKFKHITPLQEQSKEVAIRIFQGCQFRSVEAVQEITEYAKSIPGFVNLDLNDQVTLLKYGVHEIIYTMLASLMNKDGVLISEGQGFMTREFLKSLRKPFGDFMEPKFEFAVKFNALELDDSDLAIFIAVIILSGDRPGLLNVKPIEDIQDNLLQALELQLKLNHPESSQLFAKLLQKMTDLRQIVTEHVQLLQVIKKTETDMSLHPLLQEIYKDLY
Method: The transcriptional activity of PPARγ2 plays a vital role in expression of liver diseases-associated proteins. Thus, the transcriptional activity of PPARγ2 was measured using an aP2 promoter regulated by PPARγ2, and the role of 7 types of 14-3-3 proteins was investigated.
For this, HEK-293T cells were seeded in a 12-well plate at a density of 1×10^5 cells per each well, and then transfected with an aP2 promoter construct (0.5 μg) and 14-3-3 isoform proteins (α, β, γ, ε, ζ, π, θ) (0.5 μg) or si-14-3-3β and si-14-3-3γ siRNA (5 nM and 10 nM, Santa Cruz) using an E-fection plus reagent (Lugen). A ratio of DNA to the E-fection plus reagent was 1:2, and this method was performed according to a manufacturer's manual. After transfection, the corresponding cells were treated with 10 μM of pioglitazone (Pio, Santa Cruz) for 24 hours, washed with ice-cold PBS, and lysed using 80 μl/well of a reporter lysis buffer (Promega, Madison, Wis.), and the lysed cells were centrifuged at 10,000×g and 4° C. for 10 minutes to collect a supernatant, and luciferase activity was measured. As an instrument, Luminometer 20/20n (Turner Biosystems, Sunnyvale, Calif.) was used. For normalization, the cells were cotransfected with pSV40-β-galactosidase. For the collected supernatant, β-galactosidase activity was measured and the luciferase activity was revised, and the obtained values were plotted. At this time, a β-galactosidase enzyme analysis system (Promega, Madison, Wis.) was used, and analysis was performed using a DU530 spectrophotometer (Beckman Instruments, Palo Alto, Calif.).

[2] = target: T2, PPARγ2 deletion mutants (Homo sapiens, UniProt P37231); assay: GST-pull down assay with PPARγ2 deletion mutants (HEK-293T); type: binding; conditions: FIG. 3B, 3C
T2 construct: expressed in transfected cells; host or cells: HEK-293T
T2 sequence (P37231 139-505): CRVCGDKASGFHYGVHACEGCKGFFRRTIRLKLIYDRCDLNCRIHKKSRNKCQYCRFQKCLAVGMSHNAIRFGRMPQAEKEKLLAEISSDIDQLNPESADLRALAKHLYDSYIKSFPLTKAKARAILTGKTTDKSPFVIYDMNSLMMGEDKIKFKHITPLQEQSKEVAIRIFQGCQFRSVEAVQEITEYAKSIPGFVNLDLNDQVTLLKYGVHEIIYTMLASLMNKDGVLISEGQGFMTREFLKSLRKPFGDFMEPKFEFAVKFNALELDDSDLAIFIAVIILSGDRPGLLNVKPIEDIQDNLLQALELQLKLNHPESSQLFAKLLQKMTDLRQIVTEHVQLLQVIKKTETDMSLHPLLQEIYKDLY
Method: (§1) The PPARγ2 protein has been reported to consist of an activation function 1 (AF-1, amino acids 1-138) domain, a DNA-binding domain (DBD, amino acids 139-203), a hinge region (amino acids 204-310), and an activation function 2 (AF-2, amino acids 311-505) domain (see FIG. 3A). Thus, GST-pull down assay was conducted to verify which domain part of PPARγ2 was bound to 14-3-3β and 14-3-3γ.
(§2) HEK-293T cells were seeded in a 100 mm plate at a density of 2×10^6 cells per each well, and then transfected with Flag-PPARγ2 (1-505) DNA (4 μg), Flag-PPARγ2 (1-310) DNA (4 μg), Flag-PPARγ2 (139-505) DNA (4 μg), and mGST-14-3-3β (4 μg) or mGST-14-3-3γ (4 μg) using an E-fection plus reagent (Lugen). For Flag-PPARγ2 (1-310) DNA and Flag-PPARγ2 (139-505) DNA, DNA fragments amplified through polymerase chain reaction (PCR) were cloned into a pCMV-3Tag-1 vector using restriction enzymes Xhol and Apal. A ratio of DNA to the E-fection plus reagent was 1:2, and this method was performed according to a manufacturer's manual. The corresponding cells were washed with ice-cold PBS and lysed using 500 μl/well of a lysis buffer (150 mM NaCl, 1 mM EDTA, 1% Nonidet P-40, 5% glycerol, 25 mM tris-HCl, pH 7.5, protease inhibitor added), and the lysed cells were centrifuged at 10,000×g and 4° C. for 10 minutes to extract proteins. Thereafter, 1,000 μg of the proteins was reacted with 20 μl of glutathione Sepharose 4B beads (GE Healthcare, Buckinghamshire, UK) for 6 hours, and then washing of the beads with 1 ml of ice-cold PBS was repeated 5 times, and the beads were boiled at 100° C. for 10 minutes, followed by 10% SDS-PAGE gel separation and western blotting. A ratio of GST antibodies (Santa Cruz) to Flag antibodies (Santa Cruz) was 1:3000. The detection of each protein was performed using West Pico ECL (Thermo scientific, Rockford, Ill.) and identified in a darkroom.

[3] = target: T3, PPARγ2 deletion mutants (Homo sapiens, UniProt P37231); assay: as above; type: binding; conditions: FIG. 3B, 3C; remark: listed apart in the source
T3 construct: expressed in transfected cells; host or cells: HEK-293T
T3 sequence (P37231 1-310): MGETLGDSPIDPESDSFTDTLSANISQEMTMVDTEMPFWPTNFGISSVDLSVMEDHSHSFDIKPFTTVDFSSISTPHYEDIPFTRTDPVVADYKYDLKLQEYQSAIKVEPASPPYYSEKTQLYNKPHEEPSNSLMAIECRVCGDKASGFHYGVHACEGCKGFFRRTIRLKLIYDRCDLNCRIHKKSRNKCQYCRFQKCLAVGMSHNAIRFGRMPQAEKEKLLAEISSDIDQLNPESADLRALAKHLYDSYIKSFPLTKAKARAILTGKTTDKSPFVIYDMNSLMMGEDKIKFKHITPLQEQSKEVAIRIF
Method: as §1, §2

[4] = 14-3-3β / 14-3-3γ overexpressed according to concentration, FIG. 1B, 1C
[5] = overexpression of 14-3-3 isoform proteins (0.5 μg), 10 μM pioglitazone 24 hours, FIG. 1A

binding to PPARγ2 deletion mutant (139-505) [2] | binding to PPARγ2 deletion mutant (1-310) [3] | Substance | transcriptional activity of PPARγ2 (activity of the aP2 promoter) [1, 4] | transcriptional activity of PPARγ2 (activity of the aP2 promoter) [1, 5]
bound | bound | 14-3-3β: 14-3-3 isoform protein, overexpressed by DNA transfection; regulating factor that increases transcriptional activity of PPARγ2 | increased the transcriptional activity of PPARγ2 in a concentration-dependent manner | increased the transcriptional activity of PPARγ2
bound | bound | 14-3-3γ: 14-3-3 isoform protein, overexpressed by DNA transfection; regulating factor that decreases transcriptional activity of PPARγ2 | reduced the transcriptional activity of PPARγ2 in a concentration-dependent manner | decreased the transcriptional activity of PPARγ2
